Source: US20240383983A1 (ABL BIO, published 2024)
Blank lines part the entries; values can stand above or below the binder they belong to.

Legend:
[1] = target: T1, human B7-H4 expressed on cells (CHOK-1 B7-H4, SK-BR3, CAMA-1, MDA-MB-468, MX-1, OVCAR-3) (human, UniProt Q7Z7D3 25-282); test: FACS on MDA-MB-468 cells, 100 nM antibody, FITC anti-mouse IgG Fc detection (FL1-H)
T1 construct: whole, on cells; also called B7-H4 expressed cell line; B7-H4 positive cancer cell lines
T1 sequence (looked up): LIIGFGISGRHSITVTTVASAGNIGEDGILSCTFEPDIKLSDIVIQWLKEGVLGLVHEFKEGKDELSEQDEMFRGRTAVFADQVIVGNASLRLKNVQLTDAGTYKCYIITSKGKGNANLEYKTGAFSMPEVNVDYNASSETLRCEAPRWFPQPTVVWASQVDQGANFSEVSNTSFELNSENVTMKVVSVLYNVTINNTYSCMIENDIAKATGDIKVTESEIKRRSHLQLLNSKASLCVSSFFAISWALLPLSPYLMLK
Procedure: (§1) To evaluate the antigen binding property, the mouse antibody candidates generated according to Preparation Example 1-1 were analyzed for their bindings to B7-H4 expressed cells (SK-BR3, CAMA-1 and MDA-MB-468) or B7-H4 negative expressed cell (PANC-1). Briefly, each cells were treated with the 100 nM of indicated antibodies at 4° C. for 1 hr. After washing by FACS buffer (1% BSA in PBS), Cells were incubated with the FITC anti-mouse IgG Fc antibody at 4° C. for 1 hr and then subjected to FACS analysis. As shown FIG. 1, anti-B7-H4 mouse antibodies bound to B7-H4 expressed SK-BR3, CAMA-1 and MDA-MB-468 cell lines but not B7-H4 negative PANC-1. […] Based on the ranking results, 16E3H3 clone was selected for humanization.

[2] = target: T1, human B7-H4 expressed on cells (CHOK-1 …); test: FACS on SK-BR3 cells, 100 nM antibody, FITC anti-mouse IgG Fc detection (FL1-H)
Procedure: as §1

[3] = target: T1, human B7-H4 expressed on cells (CHOK-1 …); test: FACS on CAMA-1 cells, 100 nM antibody, FITC anti-mouse IgG Fc detection (FL1-H)
Procedure: as §1

B7-H6 = target: T2, B7-H6; test: ELISA on plate-coated B7-H6 (100 ng/well), three-fold dilutions of B10317 from 100 nM
T2 construct: one of the 'other B7-family proteins'; Commonly known as NCR3LG1
T2 chain: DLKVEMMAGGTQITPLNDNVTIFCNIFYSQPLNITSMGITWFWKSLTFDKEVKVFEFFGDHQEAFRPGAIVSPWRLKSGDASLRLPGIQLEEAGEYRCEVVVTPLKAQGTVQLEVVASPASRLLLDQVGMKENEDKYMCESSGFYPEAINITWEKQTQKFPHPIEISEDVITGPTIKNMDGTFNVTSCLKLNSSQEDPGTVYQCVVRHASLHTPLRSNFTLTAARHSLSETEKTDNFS
Procedure: (§2) To confirm the specific binding of anti-B7-H4/anti-4-1BB bispecific antibody against B7-H4, B10317 subjected to ELISA test. Microtiter plates were coated with each protein (100 ng/well) at 4° C. overnight, then blocked with 200 μl/well PBSB (1% (w/v) BSA in PBS). Three-fold dilutions of B10317 starting from 100 nM was added to each well and incubated at 37° C. for 1 hours. The plates were washed with PBST (0.05% (v/v) Tween20 in PBS) and then incubate for 1 hours at 37° C. with 100 ul of Anti-Fc HRP (Dilution factor, 1:30000) or Anti-Fab HRP (Dilution factor, 1:20000). The plates were washed with PBST (0.05% (v/v) Tween20 in PBS) and then the plates were developed with TMB substrate and analyzed by spectrophotometer at 450-650 nm.

[4] = target: T1, human B7-H4 expressed on cells (CHOK-1 …); test: FACS on MX-1 cells, FITC anti-human IgG detection; table under the graph prints no unit, x axis is Ab, Log[nM]
Procedure: (§3) To evaluate the tumor antigen binding property, B10317 bispecific antibody was analyzed for its binding to B7-H4-expressing mammalian cells by FACS. Briefly, B7-H4 positive cells (MX-1 and CAMA-1) were incubated with B10317 antibodies. After wash by FACS buffer (1% BSA in PBS), the FITC-anti-human IgG antibody was added to each well and incubated at 4° C. for 45 min. The MFI of FITC was evaluated by FACS Calibur.

[5] = target: T3, Recombinant B7-H4 (Monkey) protein (Monkey); test: SPR, antibody captured on Protein A chip, B7-H4 100 nM to 6.25 nM as analyte
T3 construct: also called monkey B7-H4
Procedure: (§4) In the SPR experiment, the anti-B7-H4/anti-4-1BB bispecific antibody obtained in Preparation Example 3 was captured on flow-cells 2, 3 and 4, keeping the flow-cell 1 as reference, on a Protein A Chip on which an anti-B7-H4/anti-4-1BB Bispecific antibody (B10317) has been immobilized by amine coupling. Recombinant B7-H4 (Human/Monkey) or 4-1BB (Human/Monkey) protein was flowed across the chip at concentration range from 100 nM to 6.25 nM for B7-H4 or 250 nM to 15.625 nM for 4-1BB at 30 μl/min for 60 seconds, followed by a dissociation phase of 180 seconds. Regeneration was performed with 10 mM Glycine-HCl (pH 1.5).

recombinant human B7-H4 = target: T4, recombinant human B7-H4 (human, UniProt Q7Z7D3 29-258, limits assumed); test: as above
T4 construct: also called Recombinant B7-H4 (Human)
T4 sequence (looked up): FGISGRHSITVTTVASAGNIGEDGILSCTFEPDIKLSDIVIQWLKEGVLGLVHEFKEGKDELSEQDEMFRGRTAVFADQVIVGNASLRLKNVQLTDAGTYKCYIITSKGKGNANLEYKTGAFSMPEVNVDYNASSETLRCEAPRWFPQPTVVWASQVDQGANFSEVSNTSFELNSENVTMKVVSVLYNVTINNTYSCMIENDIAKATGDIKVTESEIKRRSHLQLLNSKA
Procedure: as §4

[6] = target: T1, human B7-H4 expressed on cells (CHOK-1 …); test: FACS on CAMA-1 cells, FITC anti-human IgG detection; table under the graph prints no unit, x axis is Ab, Log[nM]
Procedure: as §3

[7] = target: T5, Recombinant 4-1BB (Monkey) protein (Monkey); test: SPR, antibody captured on Protein A chip, 4-1BB 250 nM to 15.625 nM as analyte
T5 construct: also called monkey 4-1BB
Procedure: as §4

B7-2 = target: T6, B7-2; test: ELISA on plate-coated B7-2 (100 ng/well), three-fold dilutions of B10317 from 100 nM
T6 construct: one of the 'other B7-family proteins'; Commonly known as CD86
T6 chain: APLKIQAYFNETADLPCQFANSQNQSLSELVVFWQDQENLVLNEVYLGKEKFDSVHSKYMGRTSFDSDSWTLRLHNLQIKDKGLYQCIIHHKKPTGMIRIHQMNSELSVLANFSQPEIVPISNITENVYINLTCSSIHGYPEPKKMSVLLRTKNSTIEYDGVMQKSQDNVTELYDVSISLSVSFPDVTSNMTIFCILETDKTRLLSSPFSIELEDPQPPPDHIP
Procedure: as §2

[8] = target: 4-1BB on GloResponse NFκB-luc2/4-1BB Jurkat cells (UniProt Q07011 24-255, limits assumed); test: cell-based or functional assay
B7-H2 = target: T7, B7-H2; test: ELISA on plate-coated B7-H2 (100 ng/well), three-fold dilutions of B10317 from 100 nM
T7 construct: one of the 'other B7-family proteins'; Commonly known as ICOS ligand
T7 chain: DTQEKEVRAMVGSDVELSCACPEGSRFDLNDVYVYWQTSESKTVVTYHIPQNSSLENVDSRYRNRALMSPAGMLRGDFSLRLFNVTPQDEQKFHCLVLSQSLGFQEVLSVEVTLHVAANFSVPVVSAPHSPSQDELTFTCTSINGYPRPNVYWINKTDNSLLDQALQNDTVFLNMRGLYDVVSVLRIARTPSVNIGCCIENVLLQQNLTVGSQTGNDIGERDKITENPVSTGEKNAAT
Procedure: as §2

B7-1 = target: T8, B7-1; test: ELISA on plate-coated B7-1 (100 ng/well), three-fold dilutions of B10317 from 100 nM
T8 construct: one of the 'other B7-family proteins'; Commonly known as CD80
T8 chain: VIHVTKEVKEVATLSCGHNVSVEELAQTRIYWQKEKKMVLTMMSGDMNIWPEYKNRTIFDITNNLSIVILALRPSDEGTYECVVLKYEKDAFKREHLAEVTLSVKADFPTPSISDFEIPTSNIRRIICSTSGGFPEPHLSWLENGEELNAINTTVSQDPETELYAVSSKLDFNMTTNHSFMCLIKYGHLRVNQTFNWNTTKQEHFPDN
Procedure: as §2

Sequence of 4-1BB on GloResponse NFκB-luc2/4-1BB Jurkat cells (Q07011 24-255 limits assumed): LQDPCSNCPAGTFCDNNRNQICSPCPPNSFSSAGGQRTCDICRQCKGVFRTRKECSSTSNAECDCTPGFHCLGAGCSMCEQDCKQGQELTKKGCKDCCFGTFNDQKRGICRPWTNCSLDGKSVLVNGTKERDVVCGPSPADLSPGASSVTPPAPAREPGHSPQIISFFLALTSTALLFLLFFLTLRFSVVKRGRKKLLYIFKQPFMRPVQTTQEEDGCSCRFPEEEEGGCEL

MFI [1]: 77.6
MFI [2]: 25.3
MFI [3]: 463
B1: 16E3H3 (mouse monoclonal anti-B7-H4 antibody) (antibody, V domains shown)
VH: QIQLVHSGPELKKPGETVKISCKASGYPFTTYGMNWVKQAPGKGLKWMGWIDTYSGVPTYADDFKGRFAFSLETSASTAYLQINNLKNEDTATYFCARRSFWYFDVWGTGTTVTVSS
VL: DVVMTQTPLSLPVSLGDQASISCRSSQSLVHSNGNTYLHWYLQKPGQSPKLLIYKVSNRFSGVPDRFSGSGSGTDFTLKIRRVEAEDLGVYFCSQSTHVPWTFGGGTKLEIK
notes: Mouse hybridoma antibody, detected with anti-mouse IgG Fc; also called 16E3H3 (from mouse); 16E3H3 clone

MFI [1]: 22
MFI [2]: 7.85
MFI [3]: 47.4
B2: 23B6C2 (mouse monoclonal anti-B7-H4 antibody) (antibody, V domains shown)
VH: QVTLKESGPGILQPSQTLSLTCSFSGFSLSTFGMGVGWIRQPSGKGLEWLAHIWWDDDKYYNSALKSRLTISKETSKNQIFLKIANVDTTDTATYYCVRKDYYGYRGFAYWGQGTLVTVSA
VL: QLVLTQSSSASFSLGASAKLTCTLSSQHTTYTIEWYQQQPLKPPKYVMELKKDGSHSTGDGIPDRFSGSSSGADRYLCISNIQPEDEAIYICGVGDTIKEQFVYVFGGGTKVTVL
notes: Mouse hybridoma antibody, detected with anti-mouse IgG Fc; also called 23B6C2 (from mouse)

MFI [1]: 20.1
MFI [2]: 5.95
MFI [3]: 29
B3: 73B4F10 (mouse monoclonal anti-B7-H4 antibody) (antibody, V domains shown)
VH: QVQLQQPGTELVKPGASVKLSCKASGYTFTSYWMHWVKQRPGQGLERIGHINPSNGGTNYNEKFKKKATLTVDKSSSTAYMQLSSLTSEDSAVYYCARSEFYYGTVFAYWGQGTLVTVSA
VL: DVLMTQTPLSLPVSLGDQASISCRSSQSIVHGNGNTYLEWYLQKPGQSPKLLIYKVSNRFSGVPDRFSGSGSGTDFTLKISRVEAEDLGVYYCFQGSHDPPTFGGGTKLEIK
notes: Mouse hybridoma antibody, detected with anti-mouse IgG Fc; also called 73B4F10 (from mouse)

binding result (B7-H6): no binding (tested: 100 nM)
EC50 [4]: 10.3 nM
Kd [5]: 4.53 nM
koff [5]: 0.00278 s⁻¹
kon [5]: 614000 M⁻¹ s⁻¹
Kd (recombinant human B7-H4): 4.36 nM
koff (recombinant human B7-H4): 0.00225 s⁻¹
kon (recombinant human B7-H4): 517000 M⁻¹ s⁻¹
EC50 [6]: 6.46 nM
Kd [7]: 4.01 nM
koff [7]: 0.000899 s⁻¹
kon [7]: 224000 M⁻¹ s⁻¹
binding result (B7-2): no binding (tested: 100 nM)
EC50 (nM) [NF-kB assay], with B-CAG-hB7-H4 MC38 cells [8]: 0.093 nM
EC50 (nM) [NF-kB assay], with CAMA-1 cells [8]: 0.145 nM
EC50 (nM) [NF-kB assay], with HCC1954 cells [8]: 0.647 nM
EC50 (nM) [NF-kB assay], with MDA-MB-468 cells [8]: 0.403 nM
EC50 (nM) [NF-kB assay], with MX-1 cells [8]: 0.184 nM
EC50 (nM) [NF-kB assay], with OVCAR3 cells [8]: 0.288 nM
EC50 (nM) [NF-kB assay], with SK-BR3 cells [8]: 0.234 nM
Fold of Induction [NF-kB assay], with B-CAG-hB7-H4 MC38 cells [8]: 76.1 fold
Fold of Induction [NF-kB assay], with CAMA-1 cells [8]: 44.3 fold
Fold of Induction [NF-kB assay], with CHOK1 cells (B7-H4 negative) [8]: 1.49 fold
Fold of Induction [NF-kB assay], with HCC1954 cells [8]: 3.01 fold
Fold of Induction [NF-kB assay], with MC38 cells (B7-H4 negative) [8]: 2.32 fold
Fold of Induction [NF-kB assay], with MDA-MB-468 cells [8]: 6.74 fold
Fold of Induction [NF-kB assay], with MX-1 cells [8]: 62.9 fold
Fold of Induction [NF-kB assay], with OVCAR3 cells [8]: 5.02 fold
Fold of Induction [NF-kB assay], with PANC1 cells (B7-H4 negative) [8]: 1.11 fold
Fold of Induction [NF-kB assay], with SK-BR3 cells [8]: 30.8 fold
binding result (B7-H2): no binding (tested: 100 nM)
binding result (B7-1): no binding (tested: 100 nM)
B4: 16E3H3 M1 x 1A10 M12 anti-B7-H4/anti-4-1BB bispecific antibody (bispecific antibody, human IgG1, kappa, N297A)
heavy: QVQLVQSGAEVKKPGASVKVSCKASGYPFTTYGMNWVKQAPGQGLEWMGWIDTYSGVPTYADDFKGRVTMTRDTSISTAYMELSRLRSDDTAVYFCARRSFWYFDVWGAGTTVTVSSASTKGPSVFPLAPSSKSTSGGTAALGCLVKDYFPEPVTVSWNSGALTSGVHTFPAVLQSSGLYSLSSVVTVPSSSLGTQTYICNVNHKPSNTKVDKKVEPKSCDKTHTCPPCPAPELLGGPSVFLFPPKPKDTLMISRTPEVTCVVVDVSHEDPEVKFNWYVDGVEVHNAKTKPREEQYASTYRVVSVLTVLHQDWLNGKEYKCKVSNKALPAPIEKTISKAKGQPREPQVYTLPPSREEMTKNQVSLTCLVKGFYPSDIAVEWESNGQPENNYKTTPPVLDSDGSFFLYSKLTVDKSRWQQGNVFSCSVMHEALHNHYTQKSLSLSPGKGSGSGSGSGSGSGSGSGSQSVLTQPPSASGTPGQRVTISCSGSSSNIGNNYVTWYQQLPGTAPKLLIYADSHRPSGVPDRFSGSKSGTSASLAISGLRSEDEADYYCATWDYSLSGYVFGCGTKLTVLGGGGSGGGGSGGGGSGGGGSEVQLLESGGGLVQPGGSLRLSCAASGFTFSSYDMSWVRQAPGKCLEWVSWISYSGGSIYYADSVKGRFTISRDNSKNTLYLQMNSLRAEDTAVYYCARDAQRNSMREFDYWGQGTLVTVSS
light: DVVMTQSPLSLPVTLGQPASISCRSSQSLVHSNANTYLHWYLQRPGQSPRLLIYKVSNRFSGVPDRFSGSGSGTDFTLKISRVEAEDVGVYFCSQSTHVPWTFGGGTKVEIKRTVAAPSVFIFPPSDEQLKSGTASVVCLLNNFYPREAKVQWKVDNALQSGNSQESVTEQDSKDSTYSLSSTLTLSKADYEKHKVYACEVTHQGLSSPVTKSFNRGEC
notes: IgG-scFv format: anti-B7-H4 IgG1 (N297A) heavy chain, (GS)9 linker, anti-4-1BB scFv 1A10 M12 (VL-(GGGGS)4-VH) at the C-terminus; also called B10317; 16E3H3 M1×1A10M12
